Experimental data as given in patent publication US20240181058A1, “[…] ANTIGEN RECEPTOR TARGETING ONCOLYTIC VIRUS-DERIVED PROTEIN, […], AND USES OF BOTH” (priority 2021, published 2024).

B1: Ab16 (protein)
scFv: QVQLQQSGPGLVKPSQTLSLTCAISGDSVSSNSAAWNWIRQSPSRGLEWLGRTYYRSKWYNDYAVSVKSRITINPDTSKNQFSLQLNSVTAVDTAVYYCAKSYAGPISYYYYGLDVWGQGTTVTVSSGLGGLGGGGSGGGGSGGSSGVGSQSALTQPASVSGSPGQSVTISCTGTSSDIGRYNLVSWYQQHPGKAPKLMIYGGSKRPSGVSNRFSGSNSDNTASLTISGLRAEDEADYYCSSYASSSTPYVFGTGTKVTVL
modifications: amino acid sequence for anti-UTTA scFv (Ab16)
B2: Ab18 (protein)
scFv: QVQLVESGGGLVQPGKSLRLSCAASGFTFSTYGMTWVRQAPGKGLEWVSGISGGGSSTNYADSVKGRFIISRDNSNNTLYLQMNSLRAEDTAVYYCARWGVMLSFDYWGQGTPVTVSSGLGGLGGGGSGGGGSGGSSGVGSDIQMTQSPSTLPASVGDRVTITCRASYSVSPWLAWYQQKPGKAPKLLIYKASTLESGVPSRFSGSGSGTEFTLTISSLQPDDFATYYCQQFNSYMMYTFGQGTKLEIK
modifications: amino acid sequence for anti-UTTA scFv (Ab18)
B3: Ab19 (protein)
scFv: QVQLVESGAEVRRPGSSVKVSCKTSGVTFSGYVLSWVRQAPGHGLEWMGRIIPLIDVENYAREFQGRMKITADKSTNTVYMELNNLRSEDTAVYYCAKSVVRGLDYYYYGFDVWGQGTTVTVSSGLGGLGGGGSGGGGSGGSSGVGSSYELTQPPSLSVAPGKTARITCGGNNIGSKSVHWYQQKPGQAPRLVTYYDGNRPSGIPERFSGSNSGNTATLIISRVEAGDEADYYCQVWDSSSDQGVFGTGTKVTVL
modifications: amino acid sequence for anti-UTTA scFv (Ab19)
B4: Ab13 (protein)
scFv: QMQLVESGAEVKKTGSSVKVSCKASGDTLTYRFLHWVRQAPGQAPEWMGWITPFNDNTNYAQKFQDRVTITRDRSMSTAYMELSSLRSEDTAVYYCATGGGNNYYGMEVWGQGTPITVSSGLGGLGGGGSGGGGSGGSSGVGSSYELTQPLSLSVSPGQTASITCSGDKLGDKFTSWYQQQPGQSPVLVIYQDAKRPSGIPERFSGSNSGSTATLTISGTQSMDEADYYCQAWDSSSVVFGGGTKLTVL
modifications: amino acid sequence for anti-UTTA scFv (Ab13)

Biological target: protein A56 (Vaccinia virus, UniProt Q01218)

| Molecule | Western blot band on denatured protein | Western blotting, binding affinity in a two-dimensional structure using PAGE |
| --- | --- | --- |
| B1 | many weak bands with small sizes were observed or no band was observed | linear multiple bands were identified |
| B2 | – | linear multiple bands were identified |
| B3 | many weak bands with small sizes were observed or no band was observed | a linear single band was identified |
| B4 | many weak bands with small sizes were observed or no band was observed | binding did not occur |
